Test results: the domain aggregation screens of Martell et al. (2025)

Assay: soluble fraction after stress (log2 fold change); higher = more stays soluble; pooled small domains, quantitative proteomics
Settings: stress: 50 degC
Procedure, shortened: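 Custom libraries of small protein domains were pooled and measured in a high-throughput format, with quantitative proteomics as the read-out. Each library was stressed at 50°C. The value is the log2 fold change in the amount of each protein that stays soluble after stress, used as a measure of aggregation propensity; higher values mean more of the protein stays soluble.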
With “HMPVAPTYALTVKTDPPSANVRLLNSPTPYQPGVRLPSGNYDIEVTQSGYATRKESVRIADRDVALNIAL” the “soluble fraction (log2)” value was 0.163.
For “HMGSYVVQLGAFAIRANAEKLAREVDGSIATSGRFSLVRVGPFTSRGQAEQALAKLRARGYSDALIHSL”, the “soluble fraction (log2)” value was -0.224.
For “HMHDLDALTGLSGEARSKVYEEGSVFVAGEMWSAKSDAVIPAGSSIRVVRREGFILVVEKDS”, the “soluble fraction (log2)” value was -1.12.
In the case of “HMRKMNDAVFYVEMSRPKRGYYTATYKLITRNPNSLPEHEITRRFFQMLEETIRKNPPYYLWTH”, the “soluble fraction (log2)” value is reported as -0.328.
For “HMTHEIKIKSHSLFASEGTKYQWYLNNIKINDATSQELEITSPGIYKLEMTNFDGDVIEKQIIVGLTNS”, the “soluble fraction (log2)” value was -2.94.
In the case of “HMRKKDGEAYVLPRPLKKGDSVLIYDIDKKGTVLQPPEKGGKTALIQAGIIQTRVPVSNLRLLE”, the “soluble fraction (log2)” value is reported as 0.383.
For “HMQISDDGFILKIINEVVAENPKSISDYISGKEAAVGFLVGQIMKKTRGKANPKLVNEMLITELAKLKN”, the “soluble fraction (log2)” value was -0.0439.
With “HMAKRKYKSFKDVAEFAQKLGIKSSTEWWAYVRGHEIPSDIPKDPSTYYKKEWTTWGDFLGTGYVSSA” the “soluble fraction (log2)” value was 0.154.
With “HMGSYANAWQLAEHAAKDMLGEVIYLLDGKEVHAGILETMSAESIKTASAENVDGKVVIRLVSK” the “soluble fraction (log2)” value was -0.0617.
For “HMKTRYPNVYQDEKGKFFYQIFIGTDTNGRKKLKKGRRDALGHPFSSAYQASKEAKRVQALYANVS”, the “soluble fraction (log2)” value was -1.23.
In the case of “HMSNQLAVPDVTNMKANAAADRLRQQGLRVELKTESSNTVPRGMAIRTDPAASTMVARGGRVTLIISSGKG”, the “soluble fraction (log2)” value is reported as -0.000921.
For “HMAEVIYGAGKTPAQMLGILRTMQAHGQKTVLITRLREEAAEEIGREIPLQYDKTAGVGIVGTLPQPDG”, the “soluble fraction (log2)” value was -0.0493.
For “HMSDIATLVPGPTDAELAASALRGLDAALDADTPVRLSLGEPGGEVEVPRSVLAALARVLDSFAHGEGVTL”, the “soluble fraction (log2)” value was -0.136.
In the case of “HMKLHFTINGVHYTWYKQFIRGIQIRELGNIPREDELYLDLPDGWKDDFIEDDEIVDLARPGVEHFISRAK”, the “soluble fraction (log2)” value is reported as -1.78.
With “HMEYKTGIINTNKVRVRNAADADATVIFAINKDIKVKILAEENGFYKIGVSVKNRGNGEDLIGFVKKELIT” the “soluble fraction (log2)” value was -0.631.
For “HMGPTPTSAQLTEAKRLRTKLDDLNPELAERLWSEHREPYTETQYQTLIEKLAAEVQSAEGEIGR”, the “soluble fraction (log2)” value was 0.182.
For “HMSGKWSILILHALEQGPKRFNVLHRELSGITQATLTKQLRQLEEDGIILRKAYPQIPPKVEYQLTEIG”, the “soluble fraction (log2)” value was -1.74.
For “HMNYIEWKNTFKKYLYLLPIKEEKETLAYFDEQYNKLNPKDLDNVENIFSDPIDKAAFVVAFYLEMEDEIK”, the “soluble fraction (log2)” value was -0.612.
With “HMFNLFPHLSVLRNITLAPQKVKGLNRSESNEIAMSLLERVGIPEQSDKFPSQLSGGQQQRVAIARALAM” the “soluble fraction (log2)” value was -0.402.
With “HMSVEYRKTLSDGNEYQIVKEKNGYVIKKSLNEGLDYLEPMKNRKYYSSYSQAFKRLNLIAKEVNINEGYD” the “soluble fraction (log2)” value was -0.138.
In the case of “HMVREVGYNAFLAMLDSGAVKEVARDESEGQITFLATDEKGKERVYKTGIWPDDTLTERLNTAGVEFA”, the “soluble fraction (log2)” value is reported as 0.178.
In the case of “HMYKIDFAEGDRVIIKGGAFSGLRATVVSLHPEKGMAKIKVYMFGDRETLVDIEVSQLEKDK”, the “soluble fraction (log2)” value is reported as -0.348.
With “HMGNIITQEAAVKLAQDRVPNATLVKIEYDFDDGRPVYEGELREGRWEYEFEIDAATGEFLKWEKD” the “soluble fraction (log2)” value was 0.04.
For “HMEELPIIVAQRFLNIFRQLHIFSDERREAFNKMLLELPPEVKSIFQSLPGGTPLQEYMEDLEQKSK”, the “soluble fraction (log2)” value was -0.055.
For “HMDAINYEDFQLLIKQRGSFKVAFEDIMFSTKVAIEKKEDFYDFVTKLIDNGFNNMAYNYLEGFQD”, the “soluble fraction (log2)” value was -2.09.
In the case of “HMTPVEVNARGVHVDFSKGGILLEDVVRHLILEALRASEWKRGPAAQLLGISKETLRYRMEKYRLYPP”, the “soluble fraction (log2)” value is reported as -2.26.
For “HMGFVATRSRKFLPFSEARAITRGLGFSNQKDYKEWIKGNGNELLLPFNPWRTYGDSGWKGWKDFLGTDKA”, the “soluble fraction (log2)” value was -1.03.
With “HMNRTKQIYNELLFRLDQGVYPPESKFPSESQLADEFSVSKVTMNKIVSMLASSGRLSRGVRGAGTFVSSP” the “soluble fraction (log2)” value was -0.775.
For “HMDVTDRLARRLQGLRSAQGLSLDALAARSGVSRSNISLIERGQSSPTATVLDKLSAALGVTLAALFEEP”, the “soluble fraction (log2)” value was -0.474.
For “HMIIENIVVEIKGEVYNPGLYILEQGSRINDLIELSGGFTKDANGTDLNLAKVLSDGEVIIVSKKG”, the “soluble fraction (log2)” value was -0.2.
